Positions count from the first letter of the chain named. Like-named read-outs stand apart in the source and are kept apart here.

Assay [1] has as its target T1, human NPRA on HEK293 cells, without added ligand (human, UniProt P16066 33-1061).
T1 construct: a signal peptide is not delimited; also called HEK NPRA cells; HEK hNPRA cells
T1 sequence: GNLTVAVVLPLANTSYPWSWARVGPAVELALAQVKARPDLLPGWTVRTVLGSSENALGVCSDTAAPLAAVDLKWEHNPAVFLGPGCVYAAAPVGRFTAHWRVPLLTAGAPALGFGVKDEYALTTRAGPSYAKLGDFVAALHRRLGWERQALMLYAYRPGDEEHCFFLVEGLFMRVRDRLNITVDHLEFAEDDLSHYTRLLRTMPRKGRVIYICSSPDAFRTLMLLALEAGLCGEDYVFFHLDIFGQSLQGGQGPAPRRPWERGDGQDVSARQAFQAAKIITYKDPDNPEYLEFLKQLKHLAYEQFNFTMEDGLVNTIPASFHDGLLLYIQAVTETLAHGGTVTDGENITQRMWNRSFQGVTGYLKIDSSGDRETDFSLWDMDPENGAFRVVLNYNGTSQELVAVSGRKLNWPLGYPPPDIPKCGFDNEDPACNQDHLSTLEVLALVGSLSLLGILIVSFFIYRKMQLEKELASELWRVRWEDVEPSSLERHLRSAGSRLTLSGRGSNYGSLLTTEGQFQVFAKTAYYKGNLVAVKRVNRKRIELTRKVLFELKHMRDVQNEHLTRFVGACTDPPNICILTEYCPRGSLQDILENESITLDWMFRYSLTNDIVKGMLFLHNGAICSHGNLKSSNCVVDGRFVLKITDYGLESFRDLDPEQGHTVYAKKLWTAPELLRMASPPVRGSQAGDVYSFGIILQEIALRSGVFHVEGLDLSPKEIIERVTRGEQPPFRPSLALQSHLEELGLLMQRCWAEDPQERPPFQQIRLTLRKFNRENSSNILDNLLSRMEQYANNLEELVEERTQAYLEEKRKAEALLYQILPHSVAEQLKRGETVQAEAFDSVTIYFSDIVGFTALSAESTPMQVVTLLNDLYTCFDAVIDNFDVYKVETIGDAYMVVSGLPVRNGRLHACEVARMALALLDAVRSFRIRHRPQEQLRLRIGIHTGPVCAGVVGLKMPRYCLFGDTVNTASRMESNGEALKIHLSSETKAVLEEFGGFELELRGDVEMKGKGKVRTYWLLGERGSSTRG
Put plainly: FACS, HEK NPRA cells without ligand.

Assay [2] has as its target T2, human NPRB on HEK293 cells, without added ligand (human, UniProt P20594 23-1047).
T2 construct: whole, on cells; also called HEK NPRB cells; natriuretic peptide receptor B
T2 sequence (looked up): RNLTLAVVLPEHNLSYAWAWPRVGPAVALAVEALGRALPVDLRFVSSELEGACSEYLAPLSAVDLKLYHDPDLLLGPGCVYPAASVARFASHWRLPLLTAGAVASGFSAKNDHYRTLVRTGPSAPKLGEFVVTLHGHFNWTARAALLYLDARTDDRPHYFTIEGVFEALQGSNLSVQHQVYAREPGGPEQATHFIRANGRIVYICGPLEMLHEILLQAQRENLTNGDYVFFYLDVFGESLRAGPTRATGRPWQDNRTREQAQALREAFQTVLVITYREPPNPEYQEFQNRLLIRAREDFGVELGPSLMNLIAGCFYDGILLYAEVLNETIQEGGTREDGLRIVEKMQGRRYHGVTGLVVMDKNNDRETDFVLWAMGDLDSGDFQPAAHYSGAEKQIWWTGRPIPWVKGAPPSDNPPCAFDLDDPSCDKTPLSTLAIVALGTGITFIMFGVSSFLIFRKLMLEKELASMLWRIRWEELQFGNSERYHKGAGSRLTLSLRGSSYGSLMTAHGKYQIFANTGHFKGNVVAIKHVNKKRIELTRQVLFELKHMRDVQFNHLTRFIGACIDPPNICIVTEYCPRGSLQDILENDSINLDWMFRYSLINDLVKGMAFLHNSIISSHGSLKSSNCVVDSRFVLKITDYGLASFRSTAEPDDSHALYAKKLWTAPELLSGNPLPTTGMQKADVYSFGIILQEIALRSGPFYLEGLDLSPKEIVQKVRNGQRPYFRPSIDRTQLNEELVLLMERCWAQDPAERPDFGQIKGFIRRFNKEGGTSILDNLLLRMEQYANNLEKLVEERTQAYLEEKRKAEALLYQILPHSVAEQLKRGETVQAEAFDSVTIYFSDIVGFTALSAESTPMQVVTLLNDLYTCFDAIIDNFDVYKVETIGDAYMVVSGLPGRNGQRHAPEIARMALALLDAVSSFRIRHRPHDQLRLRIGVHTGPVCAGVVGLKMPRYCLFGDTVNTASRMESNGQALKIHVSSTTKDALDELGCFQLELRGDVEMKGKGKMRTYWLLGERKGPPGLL
Put plainly: FACS, HEK NPRB cells without ligand.
Description: (§1) HEK NPRA cells are detached with Accutase (PAA Laboratories GmbH, Cat. No. L11-007, Austria), harvested by centrifugation (900 rpm, 4 minutes) and resuspended in FACS buffer (PBS/3% FCS/0.02% NaN3) to a final concentration of 10⁶ cells/ml. 100 μl of the cell suspension is transferred to each well of a 96 round bottom plate (TC Microwell 96U, Nunc). […] Cells are washed in 150 μl of FACS buffer, pelleted and resuspended in 50 μl of the solution containing the primary antibody comprising a BEL extract of Fabs, a diluted BEL extract or purified antibody diluted in FACS buffer and incubated on ice for 30 min. Cells are washed again in FACS buffer and resuspended in 50 μl of FACS buffer containing the secondary antibody (R-Phycoerythrin-conjugated Affipure F(ab′)₂ Fragment Goat Anti-Human IgG, Dianova) and incubated on ice for 45 min. Cells are washed twice with FACS buffer and resuspended in 200 μl of FACS buffer for analysis in the FACS Array (BD Biosciences).

Assay [3] addresses canine NPRA on HEK cells bound to ANP (canine, UniProt A0A8I3MHU3 32-1060). Put plainly: KinExA whole cell binding (Kd,app), HEK cells with canine NPRA, ANP bound.
The target of assay [4] is T3, human NPRB on HEK293 cells in the presence of CNP (human, UniProt P20594 23-1047; P23582 105-126).
T3 construct: whole, on cells;mature; also called HEK NPRB cells + 100 nM CNP
T3 sequence (P23582 105-126 limits assumed, chain 2 of 2, one chain of several): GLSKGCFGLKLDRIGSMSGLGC
As to the kind of experiment: FACS, HEK NPRB cells with 100 nM CNP.
Description: as §1

In assay [5] the target is T1, human NPRA on HEK293 cells, without …. Put plainly: FACS, HEK NPRA cells without ligand. This is another data set of the same source.
Description: as §1
The target in assay [6] is T4, human NPRA on HEK293 cells bound to ANP (human, UniProt P01160 124-151).
T4 construct: mature; Receptor-ligand complex on cells; also called HEK NPRA cells loaded with ANP; ANP-NPRA complex
T4 sequence: T1 sequence
T4 sequence (peptide): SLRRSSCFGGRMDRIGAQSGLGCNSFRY
Put plainly: KinExA whole cell binding, HEK NPRA cells with 1 nM ANP, against SPR on NPRA-Fc.

Chain of canine NPRA on HEK cells bound to ANP (A0A8I3MHU3 entry or part of it): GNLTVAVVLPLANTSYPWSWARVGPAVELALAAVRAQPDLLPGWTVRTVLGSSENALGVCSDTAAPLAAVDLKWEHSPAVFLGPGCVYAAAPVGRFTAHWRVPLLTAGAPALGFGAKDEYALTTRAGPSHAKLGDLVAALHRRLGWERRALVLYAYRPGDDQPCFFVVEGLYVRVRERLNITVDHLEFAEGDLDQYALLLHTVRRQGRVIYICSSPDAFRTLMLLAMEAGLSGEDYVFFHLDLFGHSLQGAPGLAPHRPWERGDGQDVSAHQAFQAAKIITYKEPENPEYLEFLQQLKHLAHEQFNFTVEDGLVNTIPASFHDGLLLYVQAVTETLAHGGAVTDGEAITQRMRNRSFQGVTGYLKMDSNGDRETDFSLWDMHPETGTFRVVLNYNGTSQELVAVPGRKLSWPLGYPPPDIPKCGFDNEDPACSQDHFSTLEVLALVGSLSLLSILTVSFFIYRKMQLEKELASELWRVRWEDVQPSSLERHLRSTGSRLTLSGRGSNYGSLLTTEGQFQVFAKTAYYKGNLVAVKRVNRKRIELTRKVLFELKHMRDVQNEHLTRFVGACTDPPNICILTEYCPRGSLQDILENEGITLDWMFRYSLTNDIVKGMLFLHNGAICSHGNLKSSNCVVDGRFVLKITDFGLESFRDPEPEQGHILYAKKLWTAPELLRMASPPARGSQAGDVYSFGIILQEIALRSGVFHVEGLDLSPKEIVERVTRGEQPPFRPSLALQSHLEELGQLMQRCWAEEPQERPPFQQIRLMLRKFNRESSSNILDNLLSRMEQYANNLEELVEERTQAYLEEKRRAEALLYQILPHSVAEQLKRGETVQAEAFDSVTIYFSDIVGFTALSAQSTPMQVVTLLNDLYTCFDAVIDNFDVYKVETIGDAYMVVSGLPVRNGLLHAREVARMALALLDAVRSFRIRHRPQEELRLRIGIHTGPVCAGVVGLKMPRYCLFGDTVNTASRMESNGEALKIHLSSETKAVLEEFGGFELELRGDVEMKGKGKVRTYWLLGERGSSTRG

B1: 5502 IgG4_Pro (antibody, V domains shown)
VH: QVQLQQSGPGLVKPSQTLSLTCAISGDSVSSRSASWSWIRQSPGRGLEWLGRIYYRSKWYNDYAVSVKSRITINPDTSKNQFSLQLNSVTPEDTAVYYCARMDVPSFRYFDVWGQGTLVTVSS
VL: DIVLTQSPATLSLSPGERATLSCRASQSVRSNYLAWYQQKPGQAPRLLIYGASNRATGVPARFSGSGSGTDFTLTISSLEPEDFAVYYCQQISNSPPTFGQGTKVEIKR
notes: Human IgG4_Pro
B1: the binding result in assay [1] was “no binding (tested: 20 nM)”.

B2: 5591 IgG4_Pro (antibody, V domains shown)
VH: B1 VH with I53T, K58H, N61Y, D62E, V65Q
VL: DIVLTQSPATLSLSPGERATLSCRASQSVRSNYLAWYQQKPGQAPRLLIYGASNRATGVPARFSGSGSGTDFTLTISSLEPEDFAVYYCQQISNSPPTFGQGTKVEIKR
For B2, the binding result in assay [2], in assay [4] and in assay [5] was “no binding (tested: 20 nM)” each time. This molecule also came in with a Kd in assay [3] of 0.096 nM. Also, in assay [6], the “fold, apparent Kd on cells (KinExA) over Kd by surface plasmon resonance on NPRA-Fc” value was approximately 20 fold.

B3: 5592 IgG4_Pro (antibody, V domains shown)
VH: B1 VH with I53T, K58H, N61Y, D62E, V65Q
VL: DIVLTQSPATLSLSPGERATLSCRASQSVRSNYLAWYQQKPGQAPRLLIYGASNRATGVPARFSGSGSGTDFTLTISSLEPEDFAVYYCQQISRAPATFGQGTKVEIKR
Turning to B3, the binding result in assay [2], in assay [4] and in assay [5] was “no binding (tested: 20 nM)” throughout.

Values taken from patent US20160168251A1 (MorphoSys, published 2016).
